The target in test [1] is T1, extracellular domain polypeptide of a recombinant B7-H3 variant 2 antigen (R&D Systems, Inc., #2318-B3-050/CF) (human, UniProt Q5ZPR3 29-466).
T1 construct: Bought recombinant protein; also called recombinant B7-H3 antigen; B7-H3 antigen
T1 sequence: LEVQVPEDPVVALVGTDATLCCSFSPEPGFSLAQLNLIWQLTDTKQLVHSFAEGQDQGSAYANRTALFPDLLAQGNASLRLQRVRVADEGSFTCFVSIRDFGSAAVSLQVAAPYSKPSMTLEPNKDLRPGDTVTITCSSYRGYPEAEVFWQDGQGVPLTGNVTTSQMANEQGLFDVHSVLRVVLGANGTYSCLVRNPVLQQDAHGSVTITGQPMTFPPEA
In words: SPR, antibody captured on immobilized anti-human IgG, B7-H3 variant 2 extracellular domain as analyte; cM30 chimeric antibody, captured on anti-human IgG; experiment 8)-1. The procedure: The affinity between the M30 antibody or the cM30 antibody and the B7-H3 antigen was measured by a surface plasmon resonance (SPR) device (GE Healthcare Corporation). According to a common procedure, an anti-mouse IgG or an anti-human IgG antibody was immobilized on a sensor chip, and then, the M30 antibody sample or the cM30 antibody was bound thereto. Thereafter, an extracellular domain polypeptide of a recombinant B7-H3 variant 2 antigen (manufactured by R&D Systems, Inc., #2318-B3-050/CF) was added thereto at different concentrations, and the amount of the antigen bound to the antibody in a running buffer (phosphate buffer, 0.05% SP20) was measured over time. The measured amount was analyzed with a dedicated software (BIAevaluation Version 4.1, GE Healthcare Corporation) and a dissociation constant was calculated.

For test [2], the target named is T1, extracellular domain polypeptide of a …. Put plainly: competition ELISA on plate-coated B7-H3 variant 2 extracellular domain polypeptide; competitor biotinylated M30 (bM30, 5 ug/ml), detected with streptavidin-HRP, OD 450 nm. The procedure:
Each of the extracellular domain polypeptide of the B7-H3 variant 1 (manufactured by R&D Systems, Inc., #1949-B3-050/CF) and the extracellular domain polypeptide of the B7-H3 variant (manufactured by R&D Systems, Inc., #2318-B3-050/CF) was diluted to 0.5 μg/ml with a coating buffer and the resulting solution was dispensed at 100 μL/well in an immunoplate (manufactured by Nunc, Inc., #442404). Then, the plate was left to stand overnight at 4° C., whereby the protein was adsorbed to the plate. On the next day, an assay diluent was dispensed at 200 μL/well, and the plate was left to stand at room temperature for 4 hours.
For orientation: ELISA stands for enzyme-linked immunosorbent assay.

The target is the same in test [3]. In words: SPR (Biacore), antibody captured on anti-human IgG, B7-H3 variant 2 extracellular domain as analyte; positive control. As for the experimental part: (§1) The binding property of the humanized M30 antibody to human B7-H3 which is an antigen was measured by a surface plasmon resonance (SPR) device (Biacore, Inc.). According to a common procedure, an anti-human IgG antibody was immobilized on a sensor chip, and then, each of the purified samples of the humanized M30 antibodies obtained in the above 10)-4 was bound thereto. Thereafter, an extracellular domain polypeptide of the B7-H3 variant 2 antigen (manufactured by R&D Systems, Inc., #2318-B3-050/CF) was added thereto at different concentrations, and the amount of the antigen bound to the antibody in a running buffer (phosphate buffer, 0.05% SP20) was measured over time. The measured amount was analyzed with a dedicated software (BIAevaluation) and a dissociation constant (Kd [M]) was calculated. The measurement was performed using the cM30 antibody as a positive control for each measurement operation.
For orientation: Surface plasmon resonance follows binding to a sensor surface in real time, without labels.

The target is the same in test [4]. In words: SPR (Biacore), antibody captured on anti-human IgG, B7-H3 variant 2 extracellular domain as analyte. As for the experimental part:
as §1

Results on 12 molecules are retold here after patent publication US20130078234A1 (Daiichi Sankyo, published 2013).

Substitutions are numbered along the chain they refer to.

As usually defined, the Kd is the equilibrium constant for the complex coming apart.

B1: chimeric antibody M30 (antibody, human IgG1, kappa)
heavy: not shown
light: QIVLSQSPTILSASPGEKVTMTCRASSRLIYMHWYQQKPGSSPKPWIYATSNLASGVPARFSGSGSGTSYSLTISRVEAEDAATYYCQQWNSNPPTFGTGTKLELKRTVAAPSVFIFPPSDEQLKSGTASVVCLLNNFYPREAKVQWKVDNALQSGNSQESVTEQDSKDSTYSLSSTLTLSKADYEKHKVYACEVTHQGLSSPVTKSFNRGEC
notes: Mouse M30 variable regions on human IgG1 / human kappa constant regions; also called cM30; cM30 antibody
For B1, the Kd in test [1] was found to be 3.43 nM; in test [3] it was 0.73 nM. For the same molecule, the “IC50 (read off the curve)” value in test [2] is approximately 0.4 µg/mL.

B2: humanized M30 antibody M30-H1-L1 (antibody, human IgG1, kappa, V domains shown)
VH: QVQLVQSGAEVKKPGSSVKVSCKASGYTFTNYVMHWVRQAPGQGLEWMGYINPYNDDVKYNEKFKGRVTITADESTSTAYMELSSLRSEDTAVYYCARWGYYGSPLYYFDYWGQGTLVTVSS
VL: EIVLTQSPATLSLSPGERATLSCRASSRLIYMHWYQQKPGQAPRLLIYATSNLASGIPARFSGSGSGTDFTLTISRLEPEDFAVYYCQQWNSNPPTFGQGTKVEIKR
notes: Human IgG1/kappa
For the molecule B2, the Kd in test [4] is 87 nM.

B3: humanized M30 antibody M30-H4-L3 (antibody, human IgG1, kappa, V domains shown)
VH: B2 VH with Q1E, R38K, M48I, R67K, V68A, I70Q, A72S, E74K
VL: B2 VL with E1Q, T5S, S22T, Q41S, R44K, L46W, D69S, F70Y
notes: Human IgG1/kappa
As to B3, in test [4], the Kd came out at 160 nM.

B4: humanized M30 antibody M30-H1-L7 (antibody, human IgG1, kappa, V domains shown)
VH: B2 VH
VL: B2 VL with L45P, F70Y
notes: Human IgG1/kappa
B4: the dissociation constant Kd in test [4] is 2.7 nM.

B5: humanized M30 antibody M30-H1-L6 (antibody, human IgG1, kappa, V domains shown)
VH: B2 VH
VL: B2 VL with L45P
notes: Human IgG1/kappa
Regarding B5, the Kd in test [4] came to 3.4 nM.

B6: humanized M30 antibody M30-H1-L4 (antibody, human IgG1, kappa, V domains shown)
VH: B2 VH
VL: B2 VL with L45P, R76S
notes: Human IgG1/kappa; also called M30-H1-L4 antibody
For B6, in test [2], the “IC50 (read off the curve)” value was approximately 0.5 µg/mL. Further, the dissociation constant (Kd) in test [4] worked out at 16 nM.

B7: humanized M30 antibody M30-H1-L2 (antibody, human IgG1, kappa, V domains shown)
VH: B2 VH
VL: B2 VL with L46W, F70Y
notes: Human IgG1/kappa
In the case of B7, in test [4], the Kd was determined as 100 nM.

B8: humanized M30 antibody M30-H4-L2 (antibody, human IgG1, kappa, V domains shown)
VH: B2 VH with Q1E, R38K, M48I, R67K, V68A, I70Q, A72S, E74K
VL: B2 VL with L46W, F70Y
notes: Human IgG1/kappa
Turning to B8, the equilibrium dissociation constant (Kd) in test [4] came to 140 nM.

B9: humanized M30 antibody M30-H4-L1 (antibody, human IgG1, kappa, V domains shown)
VH: B2 VH with Q1E, R38K, M48I, R67K, V68A, I70Q, A72S, E74K
VL: B2 VL
notes: Human IgG1/kappa
On to B9, for which the Kd in test [4] is 130 nM.

B10: humanized M30 antibody M30-H1-L3 (antibody, human IgG1, kappa, V domains shown)
VH: B2 VH
VL: B2 VL with E1Q, T5S, S22T, Q41S, R44K, L46W, D69S, F70Y
notes: Human IgG1/kappa
With B10, the dissociation constant Kd in test [4] is 100 nM.

B11: humanized M30 antibody M30-H1-L5 (antibody, human IgG1, kappa, V domains shown)
VH: B2 VH
VL: B2 VL with E1Q, T5S, S22T, Q41S, R44K, L45P, L46W, D69S, F70Y
notes: Human IgG1/kappa
Regarding B11, the Kd in test [4] amounted to 1.9 nM.

B12: humanized M30 antibody M30-H4-L4 (antibody, human IgG1, kappa, V domains shown)
VH: B2 VH with Q1E, R38K, M48I, R67K, V68A, I70Q, A72S, E74K
VL: B2 VL with L45P, R76S
notes: Human IgG1/kappa
As for B12, the Kd in test [4] worked out at 12 nM.
